This note sets out measurements from paper PMC7536876 (bioRxiv, 2020).

Holding throughout (test): native MS
Series [1] concerns the target HCoV-229E nsp7–8-His6 precursor (HCoV-229E) (UniProt P0C6X1).
The target in series [2] is PEDV nsp7–8-His6 precursor (PEDV (strain CV777)) (UniProt P0C6Y4).
In series [3] the target is SARS-CoV nsp7–8-His6 precursor (SARS-CoV (strain Frankfurt-1)) (UniProt P0C6X7).
The series “native MS” deals with the molecule itself.

In the case of “HCoV-229E nsp7–8-His6 precursor (from UniProt P0C6X1) (domain or fragment)”, the stoichiometry N in series [1] was found to be 2.
In series [2], “PEDV nsp7–8-His6 precursor (from UniProt P0C6Y4) (domain or fragment)” showed a stoichiometry N of 2.
In series [3], “SARS-CoV nsp7–8-His6 precursor (from UniProt P0C6X7) (domain or fragment)” showed a stoichiometry N of 2.

B1: FIPV nsp7 (natural protein)
chain: SKLTEMKCTNVVLLGLLSKMHVESNSKEWNYCVGLHNEINLCDDPDAVLEKLLALIAFFLSKHNTCDLSDLIESYFENTTILQ
On to B1, for which, in the series “native MS”, the “stoichiometry N” value turned out to be 2.

B2: PEDV nsp7 (natural protein)
chain: SKLTDIKCSNVVLLGCLSSMNVSANSTEWAYCVDLHNKINLCNDPEKAQEMLLALLAFFLSKNSAFGLDDLLESYFNDNSMLQ
In the case of B2, the “stoichiometry N” value in “native MS” was 2.

B3: MERS-CoV nsp7 (natural protein)
chain: SKLTDLKCTSVVLLSVLQQLHLEANSRAWAFCVKCHNDILAATDPSEAFEKFVSLFATLMTFSGNVDLDALASDIFDTPSVLQ
As for B3, the “stoichiometry N” value in the series “native MS” is 2.
